In assay [1] the target is T1, cynomolgus monkey TNFR2 extracellular domain as used in the blocking ELISA (cynomolgus monkey, UniProt P20333 23-257 (human entry)).
T1 construct: also called cynoTNFR2
T1 chain: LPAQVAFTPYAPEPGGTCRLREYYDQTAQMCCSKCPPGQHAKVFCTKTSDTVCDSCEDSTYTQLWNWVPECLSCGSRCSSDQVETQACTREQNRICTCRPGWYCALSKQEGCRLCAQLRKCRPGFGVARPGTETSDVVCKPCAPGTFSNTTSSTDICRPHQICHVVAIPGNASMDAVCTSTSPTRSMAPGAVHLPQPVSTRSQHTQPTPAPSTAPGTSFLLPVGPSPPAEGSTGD
As to the kind of experiment: blocking ELISA: antibody pre-mixed with cynoTNFR2, binding of cynoTNFR2 to coated cynomolgus monkey TNFα read out. On the procedure:
96-well round bottom ELISA plates were coated overnight at 4° C. with 50 μL/well of 0.5 μg/mL human TNFα recombinant protein (R&D system, Cat #210-TA-100) in coating buffer. After removing the coating solution, blocking buffer was added into the plates followed by incubation at room temperature for 1 hour in order to block unspecific binding. During the blocking period, hybridoma antibodies samples were mixed with 0.5 μg/mL TNFR2-huFc at a 1:1 volume ratio and incubated at room temperature for another 1.5 hours. Then 50 μL/well of antigen-antibody mix solution was transferred into TNFα coated wells and incubated at room temperature for 1.5 hours. Plates were then washed 5 times with wash buffer. Then, 50 μL/well of goats anti-human IgG Fc-AP (Southern Biotech, cat #2014-04) at 1:2000 dilution in assay buffer was added, incubated at room temperature for 1 hour, washed 4 times with wash buffer and developed for 30 minutes with 50 μL/well of pNPP substrate. Plates were analyzed with a Synergy HT (Bio-TEK) at 405 nm. Parental hybridomas with the desired human and cynoTNFR2 binding as well as the ability to block human TNFR2 and human TNFα binding were prioritized for subcloning and further characterization. Subcloning was carried out with limited dilution and visual inspection was performed to ensure clonality. Hybridoma subclones were screened with the same binding and blocking assays and selected positive hits were cryopreserved.
TNFR2 blocking by purified recombinant chimeric antibodies: Human TNFR2 blocking ELISA was performed on purified recombinant chimeric antibodies following the same protocol as described above, except that 50 μL/well of serial dilution of purified antibodies (starting at 10 μg/mL, 1:3 dilution) in assay buffer was added into the reaction. The blocking IC₅₀ value represents the antibody concentration that inhibited 50% of huTNFR2 or cynoTNFR2 binding to coated human TNFα or cynomolgus monkey TNFα.
Background: An ELISA detects its analyte on a solid surface through an enzyme-linked reagent.

Assay [2] concerns the target T2, cynomolgus monkey TNFR2 extracellular domain with C-terminal 10×His tag (cynomolgus monkey, UniProt P20333 23-257 (human entry)).
T2 construct: also called cynoTNFR2-His; His-tag-cynoTNFR2
T2 chain: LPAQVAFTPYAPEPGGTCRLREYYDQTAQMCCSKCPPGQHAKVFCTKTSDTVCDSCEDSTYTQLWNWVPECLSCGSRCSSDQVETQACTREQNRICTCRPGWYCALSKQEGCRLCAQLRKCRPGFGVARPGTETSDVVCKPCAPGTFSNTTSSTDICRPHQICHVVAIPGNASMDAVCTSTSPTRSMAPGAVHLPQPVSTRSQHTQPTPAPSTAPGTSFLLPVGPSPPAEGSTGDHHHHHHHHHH
Description: ELISA, plate coated with His-tagged TNFR2 ECD, serial dilution of chimeric IgG. On the procedure:
TNFR2 binding of purified recombinant chimeric antibodies: The huTNFR2, cynoTNFR2 antigen binding ELISA was performed on the purified recombinant chimeric antibodies. Briefly, 384-well, clear, flat bottom, high binding plates (VWR, cat #29444-096) were coated overnight at 4° C. with 1 μg/mL of huTNFR2 or cynomolgus monkey TNFR2-His in PBS. After removing the coating solution, the plates were blocked by adding blocking buffer and incubated at room temperature for 1 hour. Plates were then washed 3 times with wash buffer. Serial dilution of purified antibodies in PBS was added to individual well followed by incubation at room temperature for 1 hour. Plates were washed 3 times with wash buffer. Then 50 μL/well of goat anti hu Kappa —AP (Southern Biotech, cat #2061-04) at 1:3000 dilution or goat anti human IgG Fc-AP at 1:3000 dilution in ELISA diluent was added, incubated at room temperature for 1 hour, washed 5 times with wash buffer and developed for 30 minutes with 50 μL/well of pNPP substrate. Plates were analyzed with a Bio-TEK at 405 nm. The chimeric TNFR2 antibodies were tested positive for binding to huTNFR2 and cynoTNFR2. The TNFR2 binding EC50 values are shown in Table 6, FIG. 1A (for huTNFR2) and FIG. 1B (for cynoTNFR2).

The target of assay [3] is T3, human TNFR2 expressed on cells (Expi293 cells stably expressing huTNFR2) (human, UniProt P20333 23-461).
T3 construct: whole, on cells; Also used here as the target of the Treg assay (native TNFR2 on human primary Treg cells); also called huTNFR2 expressed cells; Expi293-TNFR2 cells
T3 sequence (looked up): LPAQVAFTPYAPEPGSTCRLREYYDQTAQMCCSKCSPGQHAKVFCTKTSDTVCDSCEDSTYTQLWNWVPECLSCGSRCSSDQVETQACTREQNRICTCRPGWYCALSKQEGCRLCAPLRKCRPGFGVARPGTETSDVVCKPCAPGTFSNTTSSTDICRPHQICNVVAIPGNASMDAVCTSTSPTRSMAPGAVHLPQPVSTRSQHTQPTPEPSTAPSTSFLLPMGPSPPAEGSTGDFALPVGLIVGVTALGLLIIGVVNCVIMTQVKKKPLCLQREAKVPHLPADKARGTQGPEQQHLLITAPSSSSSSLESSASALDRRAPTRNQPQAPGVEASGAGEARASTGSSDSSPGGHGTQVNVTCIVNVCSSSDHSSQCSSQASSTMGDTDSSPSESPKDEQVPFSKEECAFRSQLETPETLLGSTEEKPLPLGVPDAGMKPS
Description: flow cytometry on Expi293 cells stably expressing huTNFR2. On the procedure: The coding sequence of huTNFR2 (Uniprot, P20333) was cloned into a lentiviral vector and the virus was packaged according to the instruction of the virus packaging kit (Lenti-X™ Packaging Single Shots, Cat #631275, Takada). The Expi293 cells were transduced with the recombinant virus and selected by puromycin. The cell line stably expressing huTNFR2 was incubated with anti-TNFR2 antibodies in PBS with 0.5% BSA, 1 mM EDTA, and 0.1% sodium azide (FACS buffer) for 30 minutes at 4° C. The cells were washed, and then incubated with 10 nM phycoerythrin (PE) conjugated anti-Human Fe Ab (Biolegend, cat #409304) for 20 minutes at 4° C. Cells were washed and then […] by flow cytometry with Attune (ThermoFisher Scientific). Data were analyzed with FlowJo software. Antibody binding is represented as median fluorescence intensity (MFI).
As shown by the results in Table 9 and FIG. 4A, the anti-TNFR2 antibodies, 51B5, 102E4, 85G8.4, 29G3, 11C1, and 15H10 bind to Expi293-TNFR2 cells dose-dependently and potently.
Background: A flow cytometer gives signals particle by particle.

B1: 29G3 chimeric anti-TNFR2 antibody (antibody, V domains shown)
VH: EVMLVESGGASVKPGGSLKLSCAASGFTFSNFAMSWVRQTPEKRLEWVATIRSGDNYSYYSDNVKGRFTISRDNARNTLYLQMSSLRSKDTSIYYCARNWDKVFDYWGQGTTLTVSS
VL: DIVLTQSPASLAVSLGQRATISCRASESVDSYGYSFMHWYQQKPGQPPKLLIYRASNLKSGIPARFSGSGSRTDFTLTINPVEADDVATYYCQQSNEDHTFGGGTKLEIK
notes: Chimeric: mouse variable domains with human constant regions, made as recombinant IgG1
B1: in assay [1], the concentration for half-maximal inhibition (IC50) was 927 pM. In addition, the EC50 in assay [2] was 41.4 pM; in assay [3], 654 pM.

B2: 85G8.4 chimeric anti-TNFR2 antibody (antibody, V domains shown)
VH: EVQLQQSGPELVKPGASVKISCKTSGYTFTDFNMDWVKQSHGKSLEWIGYINPNNGDAAYNQKFKSKATLTVDKSSNTAYMELHSLTSDDSAVYYCARWGWAFAYWGQGTLVTVSA
VL: DIVMTQSHKIMSTSVGDRVSITCKASQDVKTAVAWYQQKPGQSPKLLIYATSYRYTGVPDRFTGSGSGTDFTFTISTVQAEDLAVYYCQQHYSIPYTFGGGTKLEIK
notes: as for B1
With B2, the half-inhibitory concentration (IC50) in assay [1] was determined as 1020 pM. For the same molecule, the 50% effective concentration (EC50) was 48.8 pM in assay [2] and 1460 pM in assay [3].

B3: 15H10 chimeric anti-TNFR2 antibody (antibody, V domains shown)
VH: DVQLQESGPGLVTPSQSLSLTCSVTGYSITSGYYWNWIRQFPGNKLEWMGYITYDGNNNYNPSLKSRFSITRDTSKNQFFLKLNSVTSEDTATYYCARGDYGDSAMDYWGQGTSVTVSS
VL: EIVLTQSPAITAASLGQKVTITCSASSGVNYMHWYQQKSGTSPKPWIYEISKLASGVPARFSGSGSGTSYSLTISSMEAEDAAIYYCQQWNYPLITFGAGTKVELK
notes: as for B1
On to B3, for which the half-maximal inhibitory concentration (IC50) in assay [1] is 1010 pM. Besides, the values for the concentration for a half-maximal effect (EC50) in assay [2] and in assay [3] were 50 pM and 2520 pM, respectively.

B4: 11C1 chimeric anti-TNFR2 antibody (antibody, V domains shown)
VH: DVQLRESGPGLVTPSQSLSLTCSVTGYSITSGYYWNWIRQIPGNKLEWMGYITYDGNNNYDPSLKNRISITRDTSKNQFFLTLNSVTSEDTATYYCARGDYGDSAMDYWGQGTSVTVSS
VL: EIVLTQSPAITAASLGQKVTITCSASSSVSYMHWYQQKSGTSPKPWIYEISKLASGVPARFSGSGSGTSYSLIISSMEAEDAAIYYCQQWNYPLITFGAGTKLELK
notes: as for B1
Consider B4, for which the IC50 in assay [1] amounted to 1090 pM. In addition, the EC50 in assay [2] came to 57 pM; in assay [3], 2040 pM.

The IC50 is the concentration that gives 50% inhibition. What is called EC50 is the concentration needed to bring the measured effect to its halfway point.
